Reference: article PMC10634230, “The XIST lncRNA is a sex-specific reservoir of TLR7 ligands in SLE”

T1: TLR7 Fc chimera (recombinant human TLR7) (Homo sapiens, UniProt Q9NYK1 27-839)
T1 sequence: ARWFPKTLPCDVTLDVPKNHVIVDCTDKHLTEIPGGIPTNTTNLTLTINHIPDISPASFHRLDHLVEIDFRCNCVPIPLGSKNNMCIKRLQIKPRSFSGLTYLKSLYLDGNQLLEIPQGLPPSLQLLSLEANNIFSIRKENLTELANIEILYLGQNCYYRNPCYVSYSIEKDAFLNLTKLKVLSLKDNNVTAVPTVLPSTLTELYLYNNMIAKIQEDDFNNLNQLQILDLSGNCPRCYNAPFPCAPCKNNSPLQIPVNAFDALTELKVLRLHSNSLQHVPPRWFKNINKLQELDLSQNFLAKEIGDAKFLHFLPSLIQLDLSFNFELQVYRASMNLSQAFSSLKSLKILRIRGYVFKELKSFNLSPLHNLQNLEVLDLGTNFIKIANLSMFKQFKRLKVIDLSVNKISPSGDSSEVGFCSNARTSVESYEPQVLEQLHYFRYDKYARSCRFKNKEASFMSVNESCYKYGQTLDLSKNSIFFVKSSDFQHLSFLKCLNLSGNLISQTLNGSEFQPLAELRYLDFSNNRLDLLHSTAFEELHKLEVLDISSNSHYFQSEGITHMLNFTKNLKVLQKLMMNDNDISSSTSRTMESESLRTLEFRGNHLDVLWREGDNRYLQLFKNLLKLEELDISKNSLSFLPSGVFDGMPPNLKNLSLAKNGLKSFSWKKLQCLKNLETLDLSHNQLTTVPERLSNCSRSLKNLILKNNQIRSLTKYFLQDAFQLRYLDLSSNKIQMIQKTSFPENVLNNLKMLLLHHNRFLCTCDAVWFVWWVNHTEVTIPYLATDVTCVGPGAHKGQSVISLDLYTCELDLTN

B1: RNA9.2a (ssRNA)
RNA: UUGAAGGACAGGUUAAGCU
B2: RNA9.2s (ssRNA)
RNA: AGCUUAACCUGUCCUUCAA
B3: polyA (ssRNA)
RNA: AAAAAAAAAAAAAAAAAAA
B4: XIST1.1 (ssRNA)
RNA: GUUGUCAAUGGUCCUUCAA

Molecular target: T1, TLR7 Fc chimera (recombinant human TLR7)
Assay: fluorescence anisotropy; 10 uM HEPES (so in the source), 150 mM NaCl, 300 uM EDTA, 1 mM DTT, 1% glycerol; pH and temperature not stated; FA: 20 nM RNA, 10-300 nM TLR7, 10 min; EMSA: 100 ng RNA, 1 ug TLR7 in 20 uL, 30 min, 5% polyacrylamide gel
Conditions: protein: commercial; tags: Fc chimera; chain copies: 2; label: 5' FAM

| Binder | Kd [nM] | binding result |
| --- | --- | --- |
| B1 | 752 | – |
| B2 | 292 | – |
| B3 | – | no binding |
| B4 | 138 | – |
